The values that follow come from patent US20150238573A1, “NUTRITIONAL FOOD AND FEED, COMPOSITION, PROCESSING AND METHOD OF USE” (Nutrinia Ltd., priority 2004, published 2015).

The nature of series [1]: Clinical trials of oral insulin in preterm infants. Type of series: in vivo, human. An excerpt: Clinical trials were done involving supplementation of preterm infant orally-fed with Insulin.
The nature of series [2]: Stability in liquid infant formula over time (Elisa kit). Type of series: physicochemical. The text has this: The InsuMeal™ is intended to be consumed immediately after solubilization in the infant formula. […] Furthermore, in order to evaluate the final product homogeneity, at each time interval, sampling was taken at the upper, middle and lower layers of the sampled RTF bottle, as well as after formula liquid stirring.

The nature of series [3]: Influence on vitamin C in the preterm RTF formula. To be noted: 0, 6 and 12 hours from insulin supplementation. Type of series: physicochemical.

Turning to Insulin, in series [1] (4 Units per Kg. per day oral for 28 days, control 20 days), the “time to full enteral feeding” value is given as at most 11 days. Further, in series [1] (trial group, control 6.5), the Lactase activity was 13.3. Further, in series [1] (trial group, control 54), the Gastric residuals was found to be 22. The Insulin concentration in series [2] (0 hour from insulin addition, 100 μU in 60 ml preterm RTF formula) is on record as 95.43 μU; in series [2] (3 hour from insulin addition), 105.47 μU; in series [2] (6 hour from insulin addition), 111.59 μU; in series [2] (9 hour from insulin addition), 93.34 μU; in series [2] (12 hour from insulin addition) it was 99.55 μU; in series [2] (15 hour from insulin addition), 105.38 μU. Moreover, the Insulin concentration in series [2] (18 hour from insulin addition) was 96.74 μU; in series [2] (21 hour from insulin addition) it was 93.78 μU; in series [2] (24 hour from insulin addition), 104.5 μU. Besides, the “time highly stable after addition to liquid infant formula” value in series [2] (liquid infant formula) is listed as “at least 24 hr”. The “vitamin C concentration in formula after insulin supplementation” value in series [3] is reported as “No significant differences”.
